Measurements from patent US20060257396A1 (published 2006).

Legend:
[1] = biological target: T1, aggregated synthetic Aβ1-42 (UniProt P05067 672-713); experiment: ELISA on aggregated synthetic Aβ1-42
T1 construct: range 672-713; Aggregated form coated for ELISA; also called aggregated Aβ1-42; aggregate Aβ 1-42

[2] = biological target: T1, aggregated synthetic Aβ1-42; experiment: ELISA on aggregated synthetic Aβ1-42 (given as ED50)
[3] = biological target: T2, Aβ peptide (β-amyloid peptide; form and length not stated for the assay) (UniProt P05067 672-713); experiment: BIAcore, Langmuir model (global analysis)
T2 construct: also called beta amyloid peptide

[4] = biological target: T2, Aβ peptide (β-amyloid peptide; form and …); experiment: Biacore; humanized h12A11v1
[5] = biological target: T1, aggregated synthetic Aβ1-42; experiment: competitive Aβ ELISA with biotin conjugated mouse 12A11 Cγ2a
[6] = biological target: T3, Monomer (preparation treated with peroxynitrite; modified residues not stated ; The preparation was treated with peroxynitrite. The modified residues are not stated and cannot be shown in the letters.); experiment: immunoprecipitation of the peroxynitrite treated oligomeric Aβ1-42 preparation with the antibody, SDS-PAGE (16% Tricine), Western blot imaged with 3D6
T3 construct: Monomer fraction of the same preparation as m4; also called Aβ1-42 monomer; monomeric Aβ

[7] = biological target: T2, Aβ peptide (β-amyloid peptide; form and …); experiment: BIAcore
[8] = biological target: T2, Aβ peptide (β-amyloid peptide; form and …); experiment: average of competitive ELISA and BIAcore
[9] = biological target: T2, Aβ peptide (β-amyloid peptide; form and …); experiment: ELISA competitive binding assay with biotinylated 3D6

EC50 [1] | EC50 [2] | Ka [3] | Kd [3] | koff [3] | kon [3] | Binder | other results
< 1 nM | 0.333 nM | – | – | – | – | monoclonal antibody 2C1 (antibody, V domains shown) VH: EVQLQQSGAELVKPGASVKLSCTGSGFNIKVYYVHWLKQLTEQGLEWIGRIDPENGETIYAPKFQDKATLTVDTSSNTAYLQLSSLTSEDTAVYYCVSSGYWGQGTTLTVSS VL: DIVMTQSAFSNPVTLGTSASISCRSSKSLLHRNGITYLYWYLQKPGQSPQLLIYQMSNLASGVPDRFTSSGSGTDFTLKISRVEAEDVGVYYCAQNLELWTFGGGTKLEIK | –
– | – | 6.86e+07 M⁻¹ | 14.6 nM | 0.00412 s⁻¹ | 283000 M⁻¹ s⁻¹ | humanized 12A11 version 2 (antibody, V domains shown, V region subcloned into heavy chain expression vector pCMV-Cgamma1 (human γ1); also called h12A11v2) VH: QVQLVESGGGVVQPGRSLRLSCAFSGFTLSTSGMSVGWIRQAPGKGLEWVAHIWWDDDKYYNPSLKSRFTISKDTSKNTLYLQMNSLRAEDTAVYYCARRTTTADYFAYWGQGTTVTVSS VL: DVVMTQSPLSLPVTPGEPASISCRSSQSIVHSNGNTYLEWYLQKPGQSPQLLIYKVSNRFSGVPDRFSGSGSGTDFTLKISRVEAEDVGVYYCFQSSHVPLTFGQGTKLEIK | –
– | – | 1.17e+08 M⁻¹ | 8.54 nM | 0.00261 s⁻¹ | 306000 M⁻¹ s⁻¹ | humanized 12A11 version 2.1 (antibody, V domains shown, Variable regions only; made like version 2; also called h12A11v2.1) VH: QVQLVESGGGVVQPGRSLRLSCAFSGFTLSTSGMSVGWIRQAPGKGLEWVAHIWWDDDKYYNPSLKSRFTISKDNSKNTLYLQMNSLRAEDTAVYYCARRTTTADYFAYWGQGTTVTVSS VL: DVVMTQSPLSLPVTPGEPASISCRSSQSIVHSNGNTYLEWYLQKPGQSPQLLIYKVSNRFSGVPDRFSGSGSGTDFTLKISRVEAEDVGVYYCFQSSHVPLTFGQGTKLEIK | –
– | – | 6.53e+07 M⁻¹ | 15.3 nM | 0.0055 s⁻¹ | 359000 M⁻¹ s⁻¹ | humanized 12A11 version 3 (antibody, V domains shown, Variable regions only; made like version 2; also called h12A11v3; humanized 12A11 v3) VH: QVQLVESGGGVVQPGRSLRLSCAFSGFTLSTSGMSVGWIRQAPGKGLEWVAHIWWDDDKYYNPSLKSRFTISRDNSKNTLYLQMNSLRAEDTAVYYCARRTTTADYFAYWGQGTTVTVSS VL: DVVMTQSPLSLPVTPGEPASISCRSSQSIVHSNGNTYLEWYLQKPGQSPQLLIYKVSNRFSGVPDRFSGSGSGTDFTLKISRVEAEDVGVYYCFQSSHVPLTFGQGTKLEIK | –
– | – | 1.67e+08 M⁻¹ | 5.99 nM | 0.00313 s⁻¹ | 523000 M⁻¹ s⁻¹ | humanized 12A11 version 3.1 (antibody, V domains shown, Variable regions only tied to the tested antibody; also called h12A11v3.1; humanized 12A11 v3.1) VH: QVQLVESGGGVVQPGRSLRLSCAFSGFTLSTSGMSVGWIRQAPGKGLEWLAHIWWDDDKYYNPSLKSRFTISKDNSKNTLYLQMNSLRAEDTAVYYCARRTTTADYFAYWGQGTTVTVSS VL: DVVMTQSPLSLPVTPGEPASISCRSSQSIVHSNGNTYLEWYLQKPGQSPQLLIYKVSNRFSGVPDRFSGSGSGTDFTLKISRVEAEDVGVYYCFQSSHVPLTFGQGTKLEIK | –
– | – | 3.48e+08 M⁻¹ | 2.87 nM | 0.00117 s⁻¹ | 408000 M⁻¹ s⁻¹ | humanized 12A11 version 1 (antibody, V domains shown, Variable regions only tied to the tested antibody; also called h12A11v1; humanized 12A11 v1) VH: QVQLVESGGGVVQPGRSLRLSCAFSGFSLSTSGMSVGWIRQAPGKGLEWLAHIWWDDDKYYNPSLKSRLTISKDTSKNTVYLQMNSLRAEDTAVYYCARRTTTADYFAYWGQGTTVTVSS VL: DVVMTQSPLSLPVTPGEPASISCRSSQSIVHSNGNTYLEWYLQKPGQSPQLLIYKVSNRFSGVPDRFSGSGSGTDFTLKISRVEAEDVGVYYCFQSSHVPLTFGQGTKLEIK | Kd [4]: 23 nM; IC50 ratio to murine and chimeric 12A11 [5]: ≤ 2 fold
< 1 nM | 0.667 nM | – | – | – | – | murine 12B4 monoclonal antibody (antibody, V domains shown, Mouse hybridoma antibody; Leader left out; also called mAb 12B4) VH: QVTLKESGPGILQPSQTLSLTCSFSGFSLSTNGMGVSWIRQPSGKGLEWLAHIYWDEDKRYNPSLKSRLTISKDTSNNQVFLKITNVDTADTATYYCARRRIIYDVEDYFDYWGQGTTLTVSS VL: DVLMTQTPLSLPVSLGDQASISCRSSQNIVHSNGNTYLEWYLQKPGQSPKLLIYKVSNRFSGVPDRFSGSGSGTDFTLKISRVEAEDLGVYYCFQGSHVPLTFGAGTKLELK | binding result [6]: binds
< 1 nM | 0.233 nM | – | – | – | – | murine 12A11 monoclonal antibody (antibody, mouse IgG1, V domains shown, also called mu12A11; m12A11) VH: QVTLKESGPGILKPSQTLSLTCSFSGFSLSTSGMSVGWIRQPSGKGLEWLAHIWWDDDKYYNPSLKSRLTISKDTSRNQVFLKITSVDTADTATYYCARRTTTADYFAYWGQGTTLTVSS VL: DVLMTQTPLSLPVSLGDQASISCRSSQSIVHSNGNTYLEWYLQKPGQSPKLLIYKVSNRFSGVPDRFSGSGSGTDFTLKISRVEAEDLGIYYCFQSSHVPLTFGAGTKLELK | –
– | – | – | – | – | – | humanized 3D6 version 1 (antibody, V domains shown, also called h3D6v1; h3D6 v1) VH: EVQLLESGGGLVQPGGSLRLSCAASGFTFSNYGMSWVRQAPGKGLEWVASIRSGGGRTYYSDNVKGRFTISRDNAKNSLYLQMNSLRAEDTALYYCVRYDHYSGSSDYWGQGTLVTVSS VL: YVVMTQSPLSLPVTPGEPASISCKSSQSLLDSDGKTYLNWLLQKPGQSPQRLIYLVSKLDSGVPDRFSGSGSGTDFTLKISRVEAEDVGVYYCWQGTHFPRTFGQGTKVEIK | Kd [7]: 2.06 nM; fold loss of binding affinity against murine 3D6 [8]: ~3 fold; fold less binding affinity than 3D6 [9]: ~6 fold
– | – | – | – | – | – | humanized 3D6 version 2 (antibody, V domains shown, also called h3D6v2; h3D6 v2) VH: EVQLLESGGGLVQPGGSLRLSCAASGFTFSNYGMSWVRQAPGKGLEWVASIRSGGGRTYYSDNVKGRFTISRDNSKNTLYLQMNSLRAEDTAVYYCVRYDHYSGSSDYWGQGTLVTVSS VL: DVVMTQSPLSLPVTPGEPASISCKSSQSLLDSDGKTYLNWLLQKPGQSPQRLIYLVSKLDSGVPDRFSGSGSGTDFTLKISRVEAEDVGVYYCWQGTHFPRTFGQGTKVEIK | Kd [7]: 2.24 nM; fold loss of binding affinity against murine 3D6 [8]: ~3 fold; fold less binding affinity than 3D6 [9]: ~6 fold
